Publication PMC8901805

Molecular target: FITC-BIM SAHBA2
Assay: fluorescence polarisation; direct binding: FITC-BIM SAHBA2 (50 nM) with serial dilutions of full-length BAX, read at 20 min

EC75: 500 nM
Substance: Human, recombinant and tagless BAX (from UniProt Q07812 1-192) (natural protein)
